Literature values as cited in PMC8707981.
Where two headings read alike, the source gives them in different places.

Tests used:
[1] = biological target: Spike protein RBD (SARS-CoV-2) (UniProt P0DTC2)
[2] = biological target: Spike protein RBD (SARS-CoV-2) (UniProt P0DTC2); remark: listed apart in the source

Substance | Kd [1] [nM] | Kd [2] [nM]
Casirivimab | 0.0458 | –
Imdevimab | – | 0.0467
